# Test results from IntAct's records for PubMed 27852061.
# B1: Forkhead box protein E1 (Homo sapiens), O00358 (parent)
# chain: MTAESGPPPPQPEVLATVKEERGETAAGAGVPGEATGRGAGGRRRKRPLQRGKPPYSYIALIAMAIAHAPERRLTLGGIYKFITERFPFYRDNPKKWQNSIRHNLTLNDCFLKIPREAGRPGKGNYWALDPNAEDMFESGSFLRRRKRFKRSDLSTYPAYMHDAAAAAAAAAAAAAAAAIFPGAVPAARPPYPGAVYAGYAPPSLAAPPPVYYPAASPGPCRVFGLVPERPLSPELGPAPSGPGGSCAFASAGAPATTTGYQPAGCTGARPANPSAYAAAYAGPDGAYPQGAGSAIFAAAGRLAGPASPPAGGSSGGVETTVDFYGRTSPGQFGALGACYNPGGQLGGASAGAYHARHAAAYPGGIDRFVSAM
# partner: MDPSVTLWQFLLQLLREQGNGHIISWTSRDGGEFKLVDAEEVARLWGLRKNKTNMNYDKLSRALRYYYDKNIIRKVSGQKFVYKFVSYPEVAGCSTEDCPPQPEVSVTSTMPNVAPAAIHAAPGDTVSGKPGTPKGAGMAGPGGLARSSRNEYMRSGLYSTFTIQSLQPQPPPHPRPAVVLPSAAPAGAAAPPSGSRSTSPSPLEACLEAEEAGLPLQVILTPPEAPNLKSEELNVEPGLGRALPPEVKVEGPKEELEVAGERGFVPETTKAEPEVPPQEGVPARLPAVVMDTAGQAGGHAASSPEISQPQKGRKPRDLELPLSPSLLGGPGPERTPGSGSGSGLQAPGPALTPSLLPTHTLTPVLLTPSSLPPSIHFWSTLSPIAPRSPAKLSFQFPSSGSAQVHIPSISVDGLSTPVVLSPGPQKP
# Variants of: B1
# Details: with elk1_human ELK1, P19419
row,Variant,effect of a mutation on the interaction
1,A65V,with no effect
